“And” between values parts separate entries of the source, which are not always exact repeats. Equal entries are not always repeated.
T1: human LAG3-huFc recombinant protein (human, UniProt P18627 23-450, limits assumed, biotinylated in the runs with humanized and chimeric antibodies (Example 11))
T1 construct: also called human LAG3-Fc; huLAG3-huFc; not shown: human Fc
T1 sequence: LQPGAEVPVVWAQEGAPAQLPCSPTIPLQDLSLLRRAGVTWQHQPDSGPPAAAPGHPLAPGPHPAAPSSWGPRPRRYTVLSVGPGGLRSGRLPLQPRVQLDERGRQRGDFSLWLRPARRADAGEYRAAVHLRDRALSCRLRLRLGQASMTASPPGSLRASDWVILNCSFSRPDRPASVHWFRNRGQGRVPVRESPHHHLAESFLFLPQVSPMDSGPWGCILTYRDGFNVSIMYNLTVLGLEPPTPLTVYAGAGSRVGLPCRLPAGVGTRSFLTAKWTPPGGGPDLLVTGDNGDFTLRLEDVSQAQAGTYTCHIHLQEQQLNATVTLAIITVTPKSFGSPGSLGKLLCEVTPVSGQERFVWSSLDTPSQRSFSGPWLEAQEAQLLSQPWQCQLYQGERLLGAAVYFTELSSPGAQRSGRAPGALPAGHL

T2: human LAG3 (Lymphocyte Activation Gene-3) expressed on cells (human, UniProt P18627 23-525)
T2 construct: also called hLAG3; CD223
T2 sequence: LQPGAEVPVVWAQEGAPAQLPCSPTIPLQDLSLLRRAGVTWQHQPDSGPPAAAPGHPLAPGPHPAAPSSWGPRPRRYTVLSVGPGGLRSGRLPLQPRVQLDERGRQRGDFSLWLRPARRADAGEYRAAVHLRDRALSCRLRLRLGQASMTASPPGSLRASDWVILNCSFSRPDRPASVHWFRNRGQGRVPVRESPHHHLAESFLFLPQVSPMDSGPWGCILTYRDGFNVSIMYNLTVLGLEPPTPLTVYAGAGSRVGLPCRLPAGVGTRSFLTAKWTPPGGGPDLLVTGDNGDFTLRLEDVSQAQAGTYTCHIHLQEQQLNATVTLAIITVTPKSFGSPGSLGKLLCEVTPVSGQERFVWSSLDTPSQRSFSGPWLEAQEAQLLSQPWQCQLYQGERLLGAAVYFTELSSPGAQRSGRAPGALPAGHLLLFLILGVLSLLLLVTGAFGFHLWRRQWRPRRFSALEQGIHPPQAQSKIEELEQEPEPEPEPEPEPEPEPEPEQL

T3: Human LAG3-His: [VEGF leader]-LAG3_H-[His9G] (human, UniProt P18627 23-450)
T3 construct: also called human LAG3-His tagged recombinant protein; hLAG3-His
T3 sequence: T1 sequence

B1: Ab5: humanized light chain 45AGX Humanized x[LAG3_H] mAb (LB145.22D2.E1.D1 (VL3)) Kappa (PX) and humanized heavy chain 57AHH Humanized x[LAG3_H] mAb … (antibody)
heavy: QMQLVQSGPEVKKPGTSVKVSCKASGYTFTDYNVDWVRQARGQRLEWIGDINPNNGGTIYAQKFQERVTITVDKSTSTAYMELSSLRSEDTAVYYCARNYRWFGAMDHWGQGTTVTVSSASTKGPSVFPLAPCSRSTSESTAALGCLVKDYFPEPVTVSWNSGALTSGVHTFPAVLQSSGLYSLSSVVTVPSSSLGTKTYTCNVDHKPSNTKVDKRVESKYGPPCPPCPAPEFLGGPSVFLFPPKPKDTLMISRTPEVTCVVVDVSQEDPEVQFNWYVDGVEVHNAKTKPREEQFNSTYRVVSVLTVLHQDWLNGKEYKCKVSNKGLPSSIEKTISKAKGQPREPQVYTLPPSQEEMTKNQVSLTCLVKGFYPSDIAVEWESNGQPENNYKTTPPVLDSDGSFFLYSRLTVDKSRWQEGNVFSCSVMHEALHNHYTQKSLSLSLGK
light: DIVMTQTPLSLSVTPGQPASISCKASQSLDYEGDSDMNWYLQKPGQPPQLLIYGASNLESGVPDRFSGSGSGTDFTLKISRVEAEDVGVYYCQQSTEDPRTFGGGTKVEIKRTVAAPSVFIFPPSDEQLKSGTASVVCLLNNFYPREAKVQWKVDNALQSGNSQESVTEQDSKDSTYSLSSTLTLSKADYEKHKVYACEVTHQGLSSPVTKSFNRGEC
notes: Humanized 22D2, IgG4 S228P/kappa; also called Hu22D2 VH6/VL3 (Ab 5); hu22D2 VH6/VL3
B2: Ab8: humanized light chain 45AGX Humanized x[LAG3_H] mAb (LB145.22D2.E1.D1 (VL3)) Kappa (PX) and humanized heavy chain 80AHG Humanized x[LAG3_H] mAb … (antibody)
heavy: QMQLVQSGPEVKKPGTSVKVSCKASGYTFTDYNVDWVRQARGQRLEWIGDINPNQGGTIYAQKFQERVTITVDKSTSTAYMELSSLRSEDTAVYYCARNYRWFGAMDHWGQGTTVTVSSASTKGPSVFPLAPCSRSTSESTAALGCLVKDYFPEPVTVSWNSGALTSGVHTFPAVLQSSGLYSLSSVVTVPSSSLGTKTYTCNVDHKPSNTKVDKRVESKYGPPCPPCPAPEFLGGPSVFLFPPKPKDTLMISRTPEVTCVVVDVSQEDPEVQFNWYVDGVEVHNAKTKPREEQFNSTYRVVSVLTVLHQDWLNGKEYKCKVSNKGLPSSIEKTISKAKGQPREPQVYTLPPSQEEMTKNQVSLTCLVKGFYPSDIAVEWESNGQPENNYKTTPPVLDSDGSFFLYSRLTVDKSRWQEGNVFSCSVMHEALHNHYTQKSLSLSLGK
light: B1 light
notes: Humanized 22D2 N55Q, IgG4 S228P/kappa; also called Hu22D2 VH6/VL3 N55Q (Ab 8); hu22D2 VH6/VL3 N55Q
B3: Ab7: humanized light chain 45AGX Humanized x[LAG3_H] mAb (LB145.22D2.E1.D1 (VL3)) Kappa (PX) and humanized heavy chain 21AHG Humanized x[LAG3_H] mAb … (antibody)
heavy: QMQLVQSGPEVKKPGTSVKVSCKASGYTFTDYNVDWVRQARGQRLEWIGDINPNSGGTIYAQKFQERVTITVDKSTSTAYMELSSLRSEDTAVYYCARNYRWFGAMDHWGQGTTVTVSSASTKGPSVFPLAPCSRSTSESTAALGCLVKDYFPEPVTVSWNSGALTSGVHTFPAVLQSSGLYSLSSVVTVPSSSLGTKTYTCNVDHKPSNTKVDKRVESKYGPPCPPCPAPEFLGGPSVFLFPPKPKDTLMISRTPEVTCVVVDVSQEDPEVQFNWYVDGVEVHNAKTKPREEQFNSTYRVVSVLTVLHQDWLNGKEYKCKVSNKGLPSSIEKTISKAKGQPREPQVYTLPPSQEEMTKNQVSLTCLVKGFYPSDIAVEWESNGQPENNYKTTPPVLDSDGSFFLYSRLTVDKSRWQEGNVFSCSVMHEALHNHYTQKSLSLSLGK
light: B1 light
notes: Humanized 22D2 N55S, IgG4 S228P/kappa; also called Hu22D2 VH6/VL3 N55S (Ab 7); hu22D2 VH6/VL3 N55S
B4: 22D2 chimera: chimeric antibody [LAG3_H] mAb (LB145.22D2.E1.D1 (VH0/VL0) Geneart) IgG4 S228P/kappa (PX) (antibody, V domains shown)
VH: EVLLLQSGPELVKPGTSVKIPCKASGYTFTDYNVDWVKQRHGKGLEWIGDINPNNGGTIYSQKFKGKATLTVDKSSSTAFMELRSLTSEDTAVYFCARNYRWFGAMDHWGQGTSVTVSS
VL: DIVLTQSPASLAVSPGQRATISCKASQSLDYEGDSDMNWYQQKPGQPPRLLISGASNLESGIPARFSGSGSGTDFTVNIHPVEEEDAATYYCQQSTEDPRTFGGGTKLEIK
notes: It is described as the parental LB145.22D2.E1.D1 VH0/VL0 on human IgG4 with the hinge-stabilizing S228P mutation and kappa; also called Chimeric 22D2; chimeric 22D2
B5: mouse anti-human LAG3 antibody LB145.22D2.E1.1D1 (antibody, mouse IgG2a, V domains shown)
VH: B4 VH
VL: B4 VL
notes: also called Lag3 clone 22D2; LB145.22D2.E1.D1
B6: mouse anti-human LAG3 antibody LB148.4A10.1H1 (antibody, mouse IgG2a, V domains shown)
VH: EVQLLQSGAELVRSGASVKLSCTASGFNIEDYYMHWMKQRPEQGLEWIGWIDPVNGDTEYAPKFQGKATMTADTSSNTAYLHLNSLTSEDTAVYYCNFYDGYLFAFWGQGTLVTVSA
VL: DIVLTQAAPSVPVTPGESVSISCRSSKSLLHSDGNTYLYWLLQRPGQSPQLLIYRMSNLASGVPDRFSGSGSGTVFTLRISRLEAEDVGIYYCMQHLEYPFTFGGGTKLEIK
notes: also called Lag3 clone 4A10
B7: mouse anti-human LAG3 antibody LB148.19E8.G1.1A1 (antibody, mouse IgG2b, V domains shown)
VH: QIRLQQSGPELVKPGASVKISCKASGSSFTDYYINWVKQKPGQGLEWIGWIYPGSGNSIYNENFKAKATLTVDTSSSTAYMHLSSLTSEDTAVYFCAREADYDDALDYWGQGTSVTVSS
VL: HILLTQSPAILSVSPGERVSFSCRASQSIGTSIHWYQQRTNGSPRLLIKYASESISGIPSRFSGSGSGTDFTLSINSVESEDIADYYCQQSNSWPTYTFGGGTKLEIK
notes: also called Lag3 clone 19E8
B8: mouse anti-human LAG3 antibody LB148.11C9.1C1 (antibody, mouse IgG1, V domains shown)
VH: QVQLQQPGAELVMPGASAKMSCKASGYTLTDYWMHWVKQRPGQGLEWIGAIDISDSYSSYNQKFKGKATLTVDESSSTAYMQLTSLTSEDSAVYYCARSPFYNSRGGNYFDYWGQGTTLTVSS
VL: DIQMTQTTSSLSASLGDRVTISCRASQDISNYLNWYQQKPDGTVKLLIYYTSRLHSGVPSRFSGSGSGTDYSLTISNLEQEDIATYFCQQGDTLPPWTFGGGTKLEIK
notes: also called Lag3 clone 11C9

target: T1, human LAG3-huFc recombinant protein; experiment: flow cytometry, blockade of biotinylated human LAG3-huFc binding to MHC class II on Daudi cells, streptavidin-PE
Procedure: (§1) Mouse anti-human LAG3 and humanized anti-LAG3 clones were tested for their ability to block hLAG3 interaction with human MHC Class II. Daudi cells (ATCC #CCL-213) were used as a cell line positive for human MHC class II expression. Daudi cells were blocked with 10 ug/ml of goat IgG in HBSS and 2% BCS on ice for 30 minutes and 0.5×10⁶ cells/sample were aliquoted into a 96-well V-bottom plate and blocking buffer removed. […] Cells were pelleted by centrifugation at 1200 rpm and washed twice with HBSS/2% BCS. […] Cells were washed twice as described above, resuspended in HBSS/2% BCS and read on the FACSCalibur.

B1 and B2 are within 1.5-fold of each other in IC50: 2.6 nM for the first, 2.5 nM for the second.

B3 and B4 are within 1.5-fold of each other in IC50: 2.1 nM for the first, 2.5 nM for the second.

target: T1, human LAG3-huFc recombinant protein; experiment: flow cytometry, blockade of human LAG3-huFc (2 ug/ml) binding to MHC class II on Daudi cells
Procedure: as §1, with “LAG3” for “LAG3 and humanized anti-LAG3”

B5 and B6 are within 1.5-fold of each other in IC50: 2.1 nM for the first, 1.9 nM for the second.

B7 and B8 are within 1.5-fold of each other in IC50: 2.8 nM for the first, 2 nM for the second.

target: T2, human LAG3 (Lymphocyte Activation …); experiment: flow cytometry, PHA-activated human CD8+ T cells (3 donors)
Procedure: (§2) Binding of LAG-3 mAb clones to primary T-cells was assessed using human and cynomolgous monkey (cyno) peripheral blood mononuclear cells (PBMC). Human blood was obtained from the local donors; cyno blood was obtained from Bioreclamation. PBMC were isolated from the whole blood using Ficoll-Paque Plus (GE Healthcare, Cat# 17-1440-03) density gradient centrifugation at 524×g for 40 minutes. PBMC were collected from the medium:plasma interface and washed 2 times with phosphate buffered saline (PBS). The residual red blood cells were lysed using ammonium-chloride-potassium red blood cell lysing solution (ACK, GIBCO, cat# A10492-010). Cynomolgus monkey or human PBMC (3×10⁶/ml) were stimulated with 4 μg/ml PHA (Sigma, L2769) for 48 h and 20 h, respectively. For flow cytometric analysis, 1×10⁶ PHA-activated PBMCs were used per staining in 50 μl FACS staining buffer (BD, cat# 554657). LAG-3 mAb clones or correspondent isotype controls were incubated with human or cyno PBMS followed by detection using goat anti-mouse IgG-PE (BD 550589). […] Sample acquisition was performed on an LSR II flow cytometer and the data were analyzed using FlowJo software version 10.0.6 (Tree Star, Inc.).
(§3) The data represent 3 human and 3 cynomolgus donors after stimulation with 4 ug/ml of PHA for 40 hours prior to staining.

B2 and B3 are within 1.5-fold of each other in EC50: 0.035 nM for the first, 0.049 nM for the second.

target: T2, human LAG3 (Lymphocyte Activation …); experiment: flow cytometry, PHA-activated human CD4+ T cells (3 donors)
Procedure: as §2, §3

B2 and B3 are within 1.5-fold of each other in EC50: 0.041 nM for the first, 0.057 nM for the second.

target: T2, human LAG3 (Lymphocyte Activation …); experiment: cell based KinExA, BaF/3 cells transfected with human LAG3 (n=2)
Procedure: The affinities of the LAG3 antibodies for LAG3 were determined using a cell based Kinetic Exclusion Assay (KinExA). Cell based KinExA can be used to measure the affinity of a molecule for a binding partner on a cell surface (Rathanaswami et al. Analylitical Biochemistry 373(1): 52-60 (2008); Xie et al. J. Immunol. Methods 304 (1-2): 1-14 (2005)). In this case, BaF/3 cells were stably transfected with human and cynomolgus monkey LAG3 proteins. Transfected cells or the parental BaF/3 control cell line were grown to a density of 1.7×10⁶ to 3.2×10⁶ cells per ml at 37° C., 120 RPM, 5% CO₂, in 1X RPMI 1640 media with 10% FBS, 10 ng/ml IL-3, 5 μg/ml puromycin. Cells were concentrated, mixed with 15 pM or 150 pM antibody in cell culture media and incubated 24 to 48 hours at room temperature while rotating at 20 to 30 RPM. Cells were present at a top concentration of 2×10⁷ cells per ml (parental BaF/3 or cynomolgus LAG3 transfectants) or 1×10⁷ cells per ml (human LAG3 transfectants) and diluted in a 2-fold, 18 member series. The cells were pelleted and free antibody in the supernatant was measured using a KinExA 3200 instrument (Sapidyne, Id., USA). […] Antibody on the beads was labeled with 1.5 μg/ml Alexa Fluor® 647 conjugated goat anti-human (Fab′)₂ (Jackson ImmunoResearch Laboratories), washed and the fluorescent signal was read all using the KinExA™ 3200. The data from the 15 pM and 150 pM concentrations of each antibody were fit simultaneously using KinExA™ Pro n-Curve Analysis software version 4.0.11 (Sapidyne).

Going from B1 to B2, the Kd rises from 0.006 nM to 0.011 nM (1.8-fold). The first binds more tightly here.

Going from B3 to B4, the Kd falls from 0.01 nM to 0.003 nM (3.3-fold).

target: T2, human LAG3 (Lymphocyte Activation …); experiment: cell-based or functional assay

B5 was tested, and the “EC50 for IL-2 rescue, hLAG3-3A9 T cell system” value (shortened to “EC50 for IL-2 rescue”) was 1.06 nM and 1.65 nM.
With B6 the “EC50 for IL-2 rescue” value was 2.83 nM and 2.96 nM.
For B7, the “EC50 for IL-2 rescue” value was 1.74 nM and 1.83 nM.
B8 was tested, and the “EC50 for IL-2 rescue” value was 3.56 nM and 4.06 nM.

target: T1, human LAG3-huFc recombinant protein; experiment: flow cytometry, blockade of human LAG3-huFc binding to MHC class II on Daudi cells
Procedure: as §1, with “LAG3” for “LAG3 and humanized anti-LAG3”

B5 and B6 are within 1.5-fold of each other in IC50: 2.1 nM for the first, 1.9 nM for the second.

B7 and B8 are within 1.5-fold of each other in IC50: 2.8 nM for the first, 2 nM for the second.

target: T3, Human LAG3-His: [VEGF …; experiment: SPR (Biacore T200), antibody captured on goat anti-mouse Fc, human LAG3-His as analyte, 1:1 Langmuir fit
Procedure: Mouse anti-human LAG3 clones listed above were injected over the immobilized goat anti-mouse surfaces at 1 ug/mL for a capture level of 40 RU. HBS-EP+ buffer (BR-1006-69) was used as the running buffer with a flow rate of 30 μL/min.
Varying concentrations of human LAG3-His protein ranging from 0.15 nM to 18.8 nM, at a flow rate of 40 μL/min were injected over the antibody surfaces.
Background subtraction binding sensorgrams were used for analyzing the rate constant of association (kₐ) and dissociation (kd), and the equilibrium dissociation constant KD. The resulting data sets were fitted with a 1:1 Langmuir Binding Model using the Biacore T200 evaluation software (version 2.0).

First: B5
Second: B6
The Kd of the first is 33-fold lower: 0.00277 nM for the first, 0.0903 nM for the second. The first binds more tightly here.

First: B7
Second: B8
The Kd of the first is 100-fold lower: 0.0147 nM for the first, 1.47 nM for the second. The first binds more tightly here.

Going from B5 to B6, the koff rises from 3.84e-05 s⁻¹ to 0.000113 s⁻¹ (2.9-fold).

First: B7
Second: B8
The koff of the first is 18-fold lower: 0.000109 s⁻¹ for the first, 0.00192 s⁻¹ for the second.

First: B5
Second: B6
The kon of the first is 11-fold higher: 1.39e+07 M⁻¹ s⁻¹ for the first, 1.25e+06 M⁻¹ s⁻¹ for the second.

First: B7
Second: B8
The kon of the first is 5.7-fold higher: 7.43e+06 M⁻¹ s⁻¹ for the first, 1.31e+06 M⁻¹ s⁻¹ for the second.
